From patent US20080096219A1 come the findings set out here.

The assay deals with horseradish peroxidase-conjugated IgG (Wako Pure Chemical Industries, Ltd.). As to the kind of experiment: protein A immobilized on a platinum microelectrode (-100 mV), incubated with 0.5 mg/ml HRP-conjugated IgG, peroxidase luminescence read by luminometer.

polyhistidine-fused protein A yielded an amount of luminescence of 1.4e+10 cps.
